The target of assay [1] is Yeast cytochrome c peroxidase C128A with MSKT as the first four N-terminal residues (yeast) (UniProt P00431). Nature of the assay: paramagnetic relaxation enhancement NMR; intermolecular PRE: 200 uM [15N,2H] CcP WT (C128A) with 200 uM unlabelled MTSL- or MTS-tagged N38C, N200C or T288C CcP; 20 mM NaPi, 100 mM NaCl, pH 6.0, 293 K; fraction bound and KD estimated from PRE-driven ensemble docking with an assumed correlation time of 45 ns.

The target of assay [2] is cytochrome c peroxidase (Saccharomyces cerevisiae) (UniProt P00431). The settings on record: cited from earlier work.

The term Kd denotes the concentration at which binding is half-saturated.

Chain of cytochrome c (P00044 2-109): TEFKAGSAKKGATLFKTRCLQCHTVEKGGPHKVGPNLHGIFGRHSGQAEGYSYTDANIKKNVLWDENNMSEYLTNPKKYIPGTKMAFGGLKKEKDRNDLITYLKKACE

With “Yeast cytochrome c peroxidase C128A T288C tagged with MTSL (or diamagnetic MTS) at C288 (from UniProt P00431 71-361) (enzyme)”, in assay [1], the equilibrium dissociation constant (Kd) was 360 µM and the fraction bound was 0.4.
For “Yeast cytochrome c peroxidase C128A N38C tagged with MTSL (or diamagnetic MTS) at C38 (from UniProt P00431 71-361) (enzyme)”, in assay [1], the dissociation constant (Kd) is 360 µM and the fraction bound was 0.4.
With cytochrome c (from UniProt P00044), in assay [2], the Kd is 5 µM.
On to “Yeast cytochrome c peroxidase C128A N200C tagged with MTSL (or diamagnetic MTS) at C200 (from UniProt P00431 71-361) (enzyme)”, for which, in assay [1], the Kd is 360 µM and the fraction bound is 0.4.

Values taken from PMC4908164.
